Assay results: patent US20190300590A1 (PROTAGONIST THERAPEUTICS, published 2019)
Read-outs that look alike come from different tables or passages of the source. Bridges are numbered along the chain shown (N, C = ends). [ ]: non-standard residue; d: D form. The star is where a group is joined. Phe(4-CONH2) = NC(=O)c1ccc(C[C@H](N)C(=O)O)cc1; 2Nal = N[C@@H](Cc1ccc2ccccc2c1)C(=O)O; AEF = NCCOc1ccc(C[C@H](N)C(=O)O)cc1; Pen = CC(C)(S)[C@H](N)C(=O)O; hLeu = CC(C)CC[C@H](N)C(=O)O; αMeK = C[C@](N)(CCCCN)C(=O)O; Isovaleryl = CC(C)CC(=O)*; Abu = CC[C@H](N)C(=O)O

T1: IL23R_huFC (human, UniProt Q5VWK5 24-353)
T1 sequence (looked up): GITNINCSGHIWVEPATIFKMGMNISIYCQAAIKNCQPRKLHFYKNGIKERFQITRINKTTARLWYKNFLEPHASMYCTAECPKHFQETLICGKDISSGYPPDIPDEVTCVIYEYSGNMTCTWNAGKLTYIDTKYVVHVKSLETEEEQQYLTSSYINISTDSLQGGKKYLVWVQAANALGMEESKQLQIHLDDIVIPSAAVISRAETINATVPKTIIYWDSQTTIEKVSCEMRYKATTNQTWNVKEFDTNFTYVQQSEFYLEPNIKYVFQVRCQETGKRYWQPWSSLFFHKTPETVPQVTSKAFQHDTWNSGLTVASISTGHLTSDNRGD

T2: Rat IL-23R_huFC (rat, UniProt F1LX96 39-369)
T2 sequence: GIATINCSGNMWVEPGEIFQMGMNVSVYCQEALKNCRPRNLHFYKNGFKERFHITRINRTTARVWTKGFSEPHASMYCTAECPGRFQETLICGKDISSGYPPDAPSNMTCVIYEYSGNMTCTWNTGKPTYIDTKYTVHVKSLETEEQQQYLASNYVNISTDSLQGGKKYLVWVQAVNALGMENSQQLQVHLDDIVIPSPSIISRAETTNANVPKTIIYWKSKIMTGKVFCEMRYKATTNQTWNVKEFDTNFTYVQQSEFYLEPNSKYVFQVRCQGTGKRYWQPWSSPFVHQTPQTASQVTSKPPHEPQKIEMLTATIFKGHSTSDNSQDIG

T3: IL-23R on human cells (IL-23R-expressing DB cells; human NK cells) (human, UniProt Q5VWK5 24-629)
T3 sequence (looked up): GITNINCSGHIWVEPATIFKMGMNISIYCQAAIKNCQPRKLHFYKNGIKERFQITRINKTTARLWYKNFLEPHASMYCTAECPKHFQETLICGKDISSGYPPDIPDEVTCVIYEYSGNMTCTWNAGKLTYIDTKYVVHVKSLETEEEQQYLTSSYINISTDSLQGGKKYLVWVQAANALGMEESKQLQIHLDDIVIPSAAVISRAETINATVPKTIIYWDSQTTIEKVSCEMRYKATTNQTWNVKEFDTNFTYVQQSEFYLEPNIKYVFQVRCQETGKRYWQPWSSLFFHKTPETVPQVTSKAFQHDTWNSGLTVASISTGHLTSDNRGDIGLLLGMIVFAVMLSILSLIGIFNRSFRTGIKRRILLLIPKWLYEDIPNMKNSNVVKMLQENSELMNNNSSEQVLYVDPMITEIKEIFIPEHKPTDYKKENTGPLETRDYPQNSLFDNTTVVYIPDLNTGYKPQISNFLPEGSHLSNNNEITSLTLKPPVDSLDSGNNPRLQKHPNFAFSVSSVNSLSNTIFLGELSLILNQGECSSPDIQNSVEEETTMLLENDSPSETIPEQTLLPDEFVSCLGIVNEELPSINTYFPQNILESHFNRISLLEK

T4: IL23R_huFC (human, UniProt Q5VWK5 24-353)
T4 sequence (looked up): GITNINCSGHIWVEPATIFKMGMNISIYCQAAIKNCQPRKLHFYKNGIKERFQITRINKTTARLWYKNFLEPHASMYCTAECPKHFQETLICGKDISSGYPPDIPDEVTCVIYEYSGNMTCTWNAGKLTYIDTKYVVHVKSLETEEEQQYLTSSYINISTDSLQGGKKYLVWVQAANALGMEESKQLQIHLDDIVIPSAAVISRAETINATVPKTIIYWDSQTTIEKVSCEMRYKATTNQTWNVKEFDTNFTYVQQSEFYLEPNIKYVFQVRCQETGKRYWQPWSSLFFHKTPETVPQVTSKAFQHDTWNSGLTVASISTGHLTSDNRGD

T5: IL-23R on DB cells (human, UniProt Q5VWK5 24-629)
T5 sequence (looked up): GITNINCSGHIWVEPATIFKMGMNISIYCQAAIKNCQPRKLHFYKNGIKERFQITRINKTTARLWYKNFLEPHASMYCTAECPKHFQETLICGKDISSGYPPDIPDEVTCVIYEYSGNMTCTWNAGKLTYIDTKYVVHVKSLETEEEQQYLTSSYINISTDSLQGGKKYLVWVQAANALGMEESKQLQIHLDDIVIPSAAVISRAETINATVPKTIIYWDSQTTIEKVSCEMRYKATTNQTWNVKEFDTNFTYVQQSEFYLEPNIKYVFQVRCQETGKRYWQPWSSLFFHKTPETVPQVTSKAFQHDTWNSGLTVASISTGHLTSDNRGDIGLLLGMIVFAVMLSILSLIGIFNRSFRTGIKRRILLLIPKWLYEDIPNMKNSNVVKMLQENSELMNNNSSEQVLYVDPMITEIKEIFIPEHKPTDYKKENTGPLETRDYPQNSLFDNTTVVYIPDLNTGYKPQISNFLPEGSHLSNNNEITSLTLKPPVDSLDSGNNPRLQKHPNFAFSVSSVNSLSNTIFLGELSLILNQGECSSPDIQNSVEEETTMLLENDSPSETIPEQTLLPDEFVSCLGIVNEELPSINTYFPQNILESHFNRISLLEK


How the values were obtained:
[1] = target: T1, IL23R_huFC; experiment: IL23-IL23R competitive binding ELISA
[2] = target: T2, Rat IL-23R_huFC; experiment: rat IL-23R competitive binding ELISA
[3] = target: Rat IL-23R_huFC (rat); experiment: rat ELISA vs IL-23
[4] = target: T3, IL-23R on human cells …; experiment: cell-based or functional assay
[5] = target: T4, IL23R_huFC; experiment: human ELISA vs IL-23
[6] = target: T2, Rat IL-23R_huFC; experiment: rat IL-23R competitive binding ELISA; remark: listed apart in the source
[7] = target: T5, IL-23R on DB cells; experiment: cell-based or functional assay

| Binder | IC50 [1] | IC50 [6] | pStat3 HTRF IC50 [7] | other results |
| --- | --- | --- | --- | --- |
| XQTWQXYWLENG (Ac; Pen-Pen disulfide; hLeu; NH2) [Ac-[[Pen]-QTWQ-[Pen]-YW-[hLeu]-ENG-NH2] | 100 to 1000 nM |  |  |  |
| Ac-[Pen]QTWQ[Pen]YW[dN]ENG-NH2 (disulfide 1-6; SMILES CC(=O)N[C@@H]1C(=O)N[C@@H](CCC(N)=O)C(=O)N[C@@H]([C@@H](C)O)C(=O)N[C@@H](Cc2c[nH]c3ccccc23)C(=O)N[C@@H](CCC(N)=O)C(=O)N[C@H](C(=O)N[C@@H](Cc2ccc(O)cc2)C(=O)N[C@@H](Cc2c[nH]c3ccccc23)C(=O)N[C@H](CC(N)=O)C(=O)N[C@@H](CCC(=O)O)C(=O)N[C@@H](CC(N)=O)C(=O)NCC(N)=O)C(C)(C)SSC1(C)C) [Ac-[Pen]-QTWQ-[Pen]-YW-[(D)Asn]-ENG-NH2] | 1000 to 10000 nM |  |  |  |
| Ac-CQTWQCYW[hLeu]EPG-NH2 (not fully specified (bridges); cysteine pairing not given here) [Ac-CQTWQCYW-[hLeu]-EPG-NH2] |  |  |  | IC50 [2]: 140 nM |
| Ac-[Abu]QTWQC[AEF][2Nal][αMeK]K(Isovaleryl)NG-NH2 (thioether 1-6) [Ac-Cyclo-[[Abu]-QTWQC]-[Phe[4-(2-aminoethoxy)]]-[2-Nal]-[α-MeLys]-[Lys(isovaleric acid)]-NG-NH2] |  |  |  | IC50 [3]: 10 to 25 nM |
| Ac-[Abu]QTWQC[Phe(4-CONH2)][2Nal][αMeK]K(Ac)NG-NH2 (thioether 1-6) [Ac-Cyclo-[[Abu]-QTWQC]-[Phe(4-CONH2)]-[2-Nal][α-MeLys]-[Lys(Ac)]-NG-NH2] |  |  |  | IC50 [3]: 10 to 25 nM |
| Ac-[2Nal][Abu]QTWQC[AEF][2Nal][αMeK]ENN-NH2 (thioether 2-7) [Ac-[2-Nal]-Cyclo-[[Abu]-QTWQC]-[Phe[4-(2-aminoethoxy)]]-[2-Nal]-[α-MeLys]-ENN-NH2] |  |  |  | pStat3 HTRF IC50 [4]: < 10 nM; IC50 [5]: < 10 nM; IC50 [3]: 10 to 25 nM |
| XQTWQXYWKKNG (Ac; Pen-Pen disulfide; α-MeLys; Lys(Ac); NH2) [Ac-[Pen]-QTWQ-[Pen]-YW-[α-MeLys]-[Lys(Ac)]-NG-NH2] | 100 to 1000 nM |  |  |  |
| XQTWQXFXKKNG (N-terminal 4-fluorophenylacetic acid; Pen-Pen disulfide; Phe(4-OMe); 2-Nal; α-MeLys; Lys(Ac); NH2) [4-fluorophenylacetic acid-[Pen]-QTWQ-[Pen]-[Phe(4-OMe)]-[2-Nal]-[α-MeLys]-[Lys(Ac)]-NG-NH2] |  | 100 to 1000 nM |  |  |
| XQTWQXYXKENG (Ac; Pen-Pen disulfide; 2-Nal; α-MeLys; NH2) [Ac-[Pen]-QTWQ-[Pen]-Y-[2-Nal]-[α-MeLys]-ENG-NH2] | 25 to 100 nM | 100 to 1000 nM | < 10 nM |  |
| XQTWQXFXKENG (Ac; Pen-Pen disulfide; Phe(4-OMe); 2-Nal; α-MeLys; NH2) [Ac-[Pen]-QTWQ-[Pen]-[Phe(4-OMe)]-[2-Nal]-[α-MeLys]-ENG-NH2] | 25 to 100 nM | 100 to 1000 nM |  |  |

More lines, main results first:

| IC50 [1] | IC50 [6] | pStat3 HTRF IC50 [7] | Binder | other results |
| --- | --- | --- | --- | --- |
| 25 to 100 nM | 100 to 1000 nM | 10 to 25 nM | XQTWQXYWLENG (Ac; Pen-Pen disulfide; α-MeLeu; NH2) [Ac-[Pen]-QTWQ-[Pen]-Y-[α-MeLeu]-ENG-NH2] |  |
| 10 to 25 nM |  | < 10 nM | XQTWQXFXKENA (Ac; Pen-Pen disulfide; Phe[4-(2-acetylaminoethoxy)]; 2-Nal; α-MeLys(Ac); NH2) [Ac-[Pen]-QTWQ-[Pen]-[Phe[4-(2-acetylaminoethoxy)]-[2-Nal]-[α-MeLys(Ac)]-ENA-NH2] |  |
| 10 to 25 nM |  | < 10 nM | Ac-[Pen]STWQ[Pen][AEF][2Nal][αMeK]ENG-NH2 (disulfide 1-6 (inferred)) [Ac-[Pen]-STWQ-[Pen]-[Phe[4-(2-aminoethoxy)]-[2-Nal]-[α-MeLys]-ENG-NH2] |  |
| < 10 nM | 25 to 100 nM | < 10 nM | XQTWQXFXKENA (Ac; Pen-Pen disulfide; Phe[4-(2-aminoethoxy)]; 2-Nal; α-MeLys; NH2) [Ac-[Pen]-QTWQ-[Pen]-[Phe[4-(2-aminoethoxy)]-[2-Nal]-[α-MeLys]-ENA-NH2] |  |
| < 10 nM | < 10 nM | < 10 nM | XQTWQXFXLQNN (Ac; Pen-Pen disulfide; Phe[4-(2-aminoethoxy)]; 2-Nal; α-MeLeu; NH2) [Ac-[Pen]-QTWQ-[Pen]-[Phe[4-(2-aminoethoxy)]-[2-Nal]-[α-MeLeu]-QNN-NH2] |  |
| < 10 nM |  | < 10 nM | XQTWQXFXLQNN (Ac; Pen-Pen disulfide; Phe[4-(2-acetylaminoethoxy)]; 2-Nal; α-MeLeu; NH2) [Ac-[Pen]-QTWQ-[Pen]-[Phe[4-(2-acetylaminoethoxy)]-[2-Nal]-[α-MeLeu]-QNN-NH2] |  |
| 10 to 25 nM |  | < 10 nM | Ac-[Pen]TTWQ[Pen][AEF][2Nal][αMeK]ENG-NH2 (disulfide 1-6 (inferred)) [Ac-[Pen]-TTWQ-[Pen]-[Phe[4-(2-aminoethoxy)]-[2-Nal]-[α-MeLys]-ENG-NH2] |  |
| < 10 nM |  | < 10 nM | XQTWQXFXLKNN (Ac; Pen-Pen disulfide; Phe[4-(2-acetylaminoethoxy)]; 2-Nal; α-MeLeu; Lys(Ac); NH2) [Ac-[Pen]-QTWQ-[Pen]-[Phe[4-(2-acetylaminoethoxy)]-[2-Nal]-[α-MeLeu]-[Lys(Ac)]-NN-NH2] |  |
